Measured values: IntAct's records for PubMed 26307080

B1: Protein phosphatase 1 regulatory subunit 15B (Homo sapiens), Q5SWA1 (parent)
chain: MEPGTGGSRKRLGPRAGFRFWPPFFPRRSQAGSSKFPTPLGPENSGNPTLLSSAQPETRVSYWTKLLSQLLAPLPGLLQKVLIWSQLFGGMFPTRWLDFAGVYSALRALKGREKPAAPTAQKSLSSLQLDSSDPSVTSPLDWLEEGIHWQYSPPDLKLELKAKGSALDPAAQAFLLEQQLWGVELLPSSLQSRLYSNRELGSSPSGPLNIQRIDNFSVVSYLLNPSYLDCFPRLEVSYQNSDGNSEVVGFQTLTPESSCLREDHCHPQPLSAELIPASWQGCPPLSTEGLPEIHHLRMKRLEFLQQASKGQDLPTPDQDNGYHSLEEEHSLLRMDPKHCRDNPTQFVPAAGDIPGNTQESTEEKIELLTTEVPLALEEESPSEGCPSSEIPMEKEPGEGRISVVDYSYLEGDLPISARPACSNKLIDYILGGASSDLETSSDPEGEDWDEEAEDDGFDSDSSLSDSDLEQDPEGLHLWNSFCSVDPYNPQNFTATIQTAARIVPEEPSDSEKDLSGKSDLENSSQSGSLPETPEHSSGEEDDWESSADEAESLKLWNSFCNSDDPYNPLNFKAPFQTSGENEKGCRDSKTPSESIVAISECHTLLSCKVQLLGSQESECPDSVQRDVLSGGRHTHVKRKKVTFLEEVTEYYISGDEDRKGPWEEFARDGCRFQKRIQETEDAIGYCLTFEHRERMFNRLQGTCFKGLNVLKQC

Variants of: B1
Conditions: with pp1g_human PPP1CC

Row | effect of a mutation on the interaction | Variant
1 | decreasing interaction strength | R658C

Variants of: B1
Conditions: with pp1g_human PPP1CC
Remark: another data set of the same source

Row | effect of a mutation on the interaction | Variant
2 | disrupting interaction strength | R658C
